Experimental data taken from a protein production outcome set (Wang et al. 2014).

Experiment: label from the status in PepcDB records

Row | Sequence | protein production
1 | MRLMDILEILYYKKGKEFGILEKKMKEIFNETGVSLEPVNSELIGRIFLKISVLEEGEEVPSFAIKALTPKENAVDLPLGDWTDLKNVFVEEIDYLDSYGDMKILSEKNWYKIYVPYSSVKKKNRNELVEEFMKYFFESKGWNPGEYTFSVQEIDNLF | not failed
2 | MRLPLNQRVAILLHEGTTGTIGKTGLALLRYSEAPIVAVIDRNCAGQSLREITGIYRYVPIVKSVEAALEYKPQVLVIGIAPKGGGIPDDYWIELKTALQAGMSLVNGLHTPLANIPDLNALLQPGQLIWDVRKEPANLDVASGAARTLPCRRVLTVGTDMAIGKMSTSLELHWAAKLRGWRSKFLATGQTGVMLEGDGVALDAVRVDFAAGAVEQMVMRYGKNYDILHIEGQGSLLHPGSTATLPLIRGSQPTQLVLVHRAGQTHNGNNPHVPIPPLPEVIRLYETVASGGGAFGTVPVVGIALNTAHLDEYAAKEAIAHTIAETGLPCTDVVRFGADVLLDAVMQN | not failed
3 | MRLRHLSDPDSLPALDKSFAIERPALGLAPDAPPVRILLLYGSLRARSFSRLAVEEAARLLQFFGAETRIFDPSDLPLPDQVQSDDHPAVKELRALSEWSEGQVWCSPERHGQITSVMKAQIDHLPLEMAGIRPTQGRTLAVMQVSGGSQSFNAVNTLRLLGRWMRMFTIPNQSSIAKAFQEFDAAGRMKPSPYYDRIADVMEELVRFTALVRPHREALTDRYSERKAAGHVIDEATDLSSIAIAPQPLPESETS | not failed
4 | MRLSELGTGEKGVIVKVLGHGGFRKRIVEMGFIKGKTVEVLLNAPLKDPIKYKVLGYEISLRRQEAEMIEVVSEEEAKKQAEKAVYHEGLPEDVSVKEEDMKRLALGKRRTINVALVGNPNSGKTSLFNLASGAHEHVGNYSGVTVDAKEGYFDFEGYHFRIVDLPGTYSLSAYTPEEIYVRRHIVDETPDVIINVVDSSNLERNLYLTTQLIDMNVRMVVALNIYDELESSGNTLDYHLLSKLFGVPMVPTVSKKNRGLDTLFHVVINLYEGVDFFDKQGNMNPEVLKDLTEWHDSLEDRKNHEEEHLEDYVREHKRKGRVFRHIHINHGPDLEKAIDAVKEEVSKNEFIRHKYSTRFLSIKLLENDPDIESFVRTLPNAGEIFRIRDKMAKRVQETMNEDCESAITDAKYGFISGALKETFTDNHLEQAQTTKVLDAIVTHRIWGYPIFFLFMYLMFEGTFVLGEYPMMGIEWLVGQIGDLIRNNMSEGPLKDMLVDGIVGGVGGVIVFLPNILILYFCISLMEDSGYMARAAFIMDKIMHKMGLHGKSFIPLIMGFGCNVPAIMASRTIENRKSRLITMLINPLMSCSARLPIYLLLVGAFFPNNASLVLLSIYAIGIFLAVLLARLFSKFLVKGDDTPFVMELPPYRMPTAKSIFRHTWEKGAQYLKKMGGIIMIASIIIWFLGYYPNHEAYETVAEQQENSYIGQLGRAIEPVIKPMGFDWKLGIGLISGVGAKELVVSTLGVLYVDDPEADEASLAERIPITPLVAFCYMLFVLIYFPCIAALAAIKQESGSWKWALFAACYTTGLAWLVAFSVYQIGGMFV | failed
5 | MRLSRIKLPKINSLYGRIFAIFWFTMLLVLIAVLSLPHLDPRKARDIPDEHYQRIIETRDAIQNKYSKETDLGRILFRVEGNRAGKHDPRPRVFFSDYNGNVLTTDKRSNFQLRAMQNFVTSIEDYNKPKQRLYGRYMIAGPVPIVLADSELLMYVGFKWNEPPPLLLRLFDHPFQLLLAVMLVSTPLLLWLAWALSQPARRLEAAAQRVAKGEFVIDPNLEKGTAEFRQAGSSFNQMVEAVNQMISGQQRLLSDISHELRSPLTRLRMASALATRKQGDSPELVRIDTEAQRLEQMISELLELSRMQVNSHMTRETQPIESLWEEIIKDAQFEAEQMGKTLRYSEIPERHISGNPKLLMSAVENIIRNAIYYGKDEVQIDIQDKTDTLTITVDDNGDGVPDEELEAIFRPFYRVSTARDRHSGGTGLGLTITESAIRQHSGTIVASRSPLGGLRVSITLPLVKVGK | failed
6 | MRLTTLWQNRSPGDRHLSTYFCFAAVRLLLVFVPQLGYVHPDEFFQSVEVMTGDHFRLEHTRTWEFNNSLPVRSIVLPFALLRIPWSFYEFVAECLKAWWQLELLGTYAYVVFPRLIYTLISFSNDYCLFRICRLYGLRFEIRLLAMGSSWILLVFGTRTFSNSLEMAMCSWLLCLVSECMLRTNTVVYKKEFLEEKYDKAESISERVRIWKLKNSLPAHNLQHLMAMSTICVAGVFNRPTFLLFGAPMVFFWLLRGMGTRSITFRDFNLRIALFCLCALPALVLFIFCDSLYYQHLTLGELHMMHLSIDNFVFTPWNFIKANLDSAQTASHGVHPCYVHLMVNMPMLFNVLALASLGAFAQLLLRFFRAEYQVLPRFQSIVSLMSGAIFVPLFFLSLINHQEPRFLLPVTFPLILLHAPKLITGFSAKYPFQKDHPLLRLFYDKLLSSKASGPYLLKIWYVSNVALTLFFGFIHQAGVYPLAADISHVIATKPAATHVHLITSHIYSLPLHLINIPSSRVLHFNRLTHQRYRRPRDFYMYEYGGLPLDSLLQKVKLISGSCEVKKSGPSRRRYKLYLAIPASLSADLHEALVHSNASSYLNFELLKVFYPHLSTEAFPHLQGRHPCDVDAPHWAHDDLRGTCSAEQLPAFSFAYLNKQFSSFVHQLGLALYEIDVTRNKPRYVSLAYSGCSPTKGYFLLFIQFLICLALCIAAAQAGFIASPVTTYAAAPAYAASYAAPVAYSAPVATYAAAAPAYSTYAAAAPAYSTYAAAAPAYSTYAAAAPAYTASVYSAPAYTAPVTTYAAGAAYAAPVTTYSAPAIVSPILKKK | failed
7 | MRLVADSACDIKELRGMVFKAVPLTISTDNEEFCDDGQLDIHRMLDILEKHKGRSYTACPGIDAWLEAFGDDDEIFVVTITAGMSGTYNSAMAARAVYLEEHPQAKVRVIDSKSTGPQMRIILEQLQQMIEEGKKFEEIDGAIDAYMQKTRLFCSLKSLHNLAQNGRVSKVVASAAEVLGISVIGTASSHGTLEAIGKCRGDKKLLVKLQALLDDAGYEGGKLRICHVENEALADKIADMIKQAYGTTDVCVYKAGGLCSYYAERGGIILSCETK | not failed
8 | MRLVEIGRFGAPYALKGGLRFRGEPVVLHLERVYVEGHGWRAIEDLYRVGEELVVHLAGVTDRTLAEALVGLRVYAEVADLPPLEEGRYYYFALIGLPVYVEGRQVGEVVDILDAGAQDVLIIRGVGERLRDRAERLVPLQAPYVRVEEGGIHVDPIPGLFDLEHHHHHH | failed
9 | MRLYTRTGDKGKTSVIGGRLAKDDTRVVAYGTTDELNSFVGLAITQLDENTFADIRGELFKIQHELFDCGGDLAMLKVKEDRPYKAKQEIVDFLEQRIDAYIKEAPELERFILPGGSEAAASLHVCRTIARRAERYVVRLQQEGEINPIVLKYLNRLSDYFFAVARVVNSRLQVPDVEYERSAIVFREGKRKEDKK | not failed
10 | MRMAATAPAFPELEGRHPCFSTTAEGHARAARLHLPVSPGCNIDCAFCIRDFNRRDQRPGVATRLLTPEQAVAIVARALELCPSINVVGIAGPGDPLATPHALQTFALVRERWPELVLCLSTNGLMLPDRIDEIAGLGISTLTVTVNAVDPQIQAQVTPKIAWQRKRLNGVVAGERLIANQLEGIARAAAHGLTVKVNTVLIPTVNDHHIETIAERVAAAGANLINIIPLIPQHGFAHLKPPGMLMRYAARTAAEKYLRVFTHCQRCRADACGIPGVSDYAQQLYGDDIVAEPTFSHG | failed
11 | MRMFFSGLMESLKENKITFLWVLLFFLVGIVLGSYTVYYMSDFNRVEITTYFNNFLEFLGGNSVSYTSILVDSIKSILPMVAIIVLLGYTAVGTPIILMMDLAKGYVIGFTFSLIVSMLGSKGVMLVLSGLMLQNLIFIPIIMLISVLAIRHSVTKLKMGVSRDRVKLDVSRAYLNFQGLLSLIIISGILIETYISPNLIRLVISR | failed
12 | MRMGLKADSWIKKMSLEHGMISPFCEKQVGKNVISYGLSSYGYDIRVGSEFMLFDNKNALIDPKNFDPNNATKIDASKEGYFILPANAFALAHTIEYFKMPKDTLAICLGKSTYARCGIIVNVTPFEPEFEGYITIEISNTTNLPAKVYANEGIAQVVFLQGDEMCEQSYKDRGGKYQGQVGITLPKILK | failed
13 | MRMILMFDMPTETAEERKAYRKFRKFLLSEGFIMHQFSVYSKLLLNNTANNAMIGRLKVNNPKKGNITLLTVTEKQFARMVYLHGERNTSVANSDSRLVFLGDSYDQDLEHHHHHH | failed
14 | MRMNIRVALPQAQVHWCRGWLQAAHADALMQALLDQVQWEVHRIRMFGRVVDSPRLSSWIGDADASYRYSGTQFAPQPWLEALQPVRTRLQDETGSPFNSVLVNRYRSGADAMGWHSDDEPELGAQPVIASLSLGAARRFAFKHRHDAALKQTLELGHGDLLLMGGDTQRHYKHALPRTVKPVGERINLTFRQIAVRVSQRLEHHHHHH | failed
15 | MRNEAFDILKDIPKWKLIFWLLLAITLTPITELIIYRLVTSVIESSLTLTELGKEFIRIFGYEKYKGIKESLWMMIVSYLFLFSIFSSYLYIFYRHEKKLYYETCIKKMIEEIRYIANGNFNHKVSIVNHNYLEELAIGVNEIVEQLKVSIDEERQAEQAKSELITNVSHDLRTPLTSIVGYVNLIHHDNYRDEVELRYYIQVIYDKVTRLNALMNDLFEYTRVQNKELSLYSVPIDIVELLGQLTVQFRIQVQEANIECRPSFPSQKLMVLADGDKLVRVFENLIINAIAYGSEGRYIDLTAYESNNMITIDITNYGQPIPSTDLPHIFERFYRVEKSRSTNTGGSGLGLAIAKSIVELHKGTIEVYSDDEKTTFTVKLLPYKC | failed
16 | MRNHPLGIYEKALAKDLSWPERLVLAKSCGFDFVEMSVDETDERLSRLEWTSAQRASLVSAMLESGVAIPSMCLSAHRRFPFGSRDEAVRQRAREIMTKAIRLARDLGIRTIQLAGYDVYYEEHDEGTRQRFAEGLAWAVEQAAAAQVMLAVEIMDTAFMNSISKWKKWDEMLSSPWFTVYPDVGNLSAWGNDVTAELKLGIDRIAAIHLKDTLPVTGDSPGQFRDVPFGEGCVDFVGIFKTLHELNYRGSFLIEMWTEKSSEPVLEIIQARRWIESRMQEGGFTC | failed
17 | MRNIYDLANELERGIRALPEYKNLVEKKEAIATDAEASALFKEFTDFQEDFYAKMQAGTMPTAEEQAAVQELGQKVEANALLKEYLTAQQSLSVYLNDIERIIFKPLQELNN | failed
18 | MRNIYSIYKEHYKALISLGLPIVIGQIGVIVLGFADTLMIGHHSTIELGAASFVNNVFNLVIIFSTGFSYGLTPIVGGLYGTHQYASAGQALRNSLLANLLVAFLLTIGMTVLYFNVGNLGQPEELIPLIKPYYLVLLASLVFVMLFNGFKQFTDGITDTKTAMWILLGGNVLNIIGNYILIYGKLGLPEMGLLGAGISTLFSRIMMVVVFIIVFMRSPRFLRFKLGFYRLGWSKAIFGRLNSLGWPIAFQMGMETASFSLSAVMIGWLGTIALASHQVMLAISQFTFMMYYGMGAAVAVRVSNFNGQGDILNVRRSAYAGFHLMMALGVVLSSIVFLCRNYLGGWFTDSTEVAAMVTSLILPFLVYQFGDGLQITFANALRGISDVKLMMLIAFIAYFLISLPVGYFCGFVLEWGIIGVWMAFPFGLTSAGLMLWWRFHHKTKLPPSIQNS | not failed
19 | MRNPFERMPTVLTADELIDKAFRRAEKAASSFKPRGNKVKKARLREELRVRTVSNVVRDNLRKVLERTPGLSTLPKFYQELVDVLVDRDTFHKAMAGIDWAIRIIRELEERYVERIRYSNDPNEIAELRRQFYGRVASVLRDIDDRLRYLNKAREVLKDLPVVDLEIPTVVIAGHPNVGKSTLLKALTTAKPEIASYPFTTRGINVGQFEDGYFRYQIIDTPGLLDRPISERNEIEKQAILALRYLGNLIIYIFDPSEHCGFPLEEQIHLFEEVHGEFKDLPFLVVINKIDVADEENIKRLEKFVKEKGLNPIKISALKGTGIDLVKEEIIKTLRPLAEKVAREKIERELRRYRSYL | not failed
